Data: paper PMC4253074 (Journal of molecular biology, 2014)

T1: PDE6 β-subunit (Pβ), catalytic subunit of bovine rod photoreceptor phosphodiesterase (bovine, UniProt P23439 1-853)
T1 sequence (looked up): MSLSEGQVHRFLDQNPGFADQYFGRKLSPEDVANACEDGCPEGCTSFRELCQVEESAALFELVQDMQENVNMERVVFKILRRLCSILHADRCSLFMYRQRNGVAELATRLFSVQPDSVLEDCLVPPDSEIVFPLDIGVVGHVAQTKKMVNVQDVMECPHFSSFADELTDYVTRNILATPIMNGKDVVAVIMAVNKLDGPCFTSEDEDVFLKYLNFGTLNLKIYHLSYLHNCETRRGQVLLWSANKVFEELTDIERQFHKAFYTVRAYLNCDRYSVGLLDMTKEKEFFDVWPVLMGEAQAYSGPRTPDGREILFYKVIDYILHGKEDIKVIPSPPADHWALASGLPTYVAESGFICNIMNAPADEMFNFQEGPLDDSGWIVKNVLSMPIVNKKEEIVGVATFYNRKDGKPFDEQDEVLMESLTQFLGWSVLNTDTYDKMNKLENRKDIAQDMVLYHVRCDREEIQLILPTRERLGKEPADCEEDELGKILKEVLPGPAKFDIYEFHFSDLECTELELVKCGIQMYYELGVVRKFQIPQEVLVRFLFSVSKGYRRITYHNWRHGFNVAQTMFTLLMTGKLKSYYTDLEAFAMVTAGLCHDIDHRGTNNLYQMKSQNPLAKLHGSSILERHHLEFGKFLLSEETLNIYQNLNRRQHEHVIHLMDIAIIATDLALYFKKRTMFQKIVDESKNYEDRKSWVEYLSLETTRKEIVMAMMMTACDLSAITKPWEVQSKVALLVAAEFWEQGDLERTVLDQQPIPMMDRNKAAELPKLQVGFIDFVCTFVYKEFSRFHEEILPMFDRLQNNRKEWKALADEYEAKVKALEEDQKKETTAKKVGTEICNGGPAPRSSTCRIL

T2: PDE6 α-subunit (Pα), catalytic subunit of bovine rod photoreceptor phosphodiesterase (bovine, UniProt P11541 1-859)
T2 sequence (looked up): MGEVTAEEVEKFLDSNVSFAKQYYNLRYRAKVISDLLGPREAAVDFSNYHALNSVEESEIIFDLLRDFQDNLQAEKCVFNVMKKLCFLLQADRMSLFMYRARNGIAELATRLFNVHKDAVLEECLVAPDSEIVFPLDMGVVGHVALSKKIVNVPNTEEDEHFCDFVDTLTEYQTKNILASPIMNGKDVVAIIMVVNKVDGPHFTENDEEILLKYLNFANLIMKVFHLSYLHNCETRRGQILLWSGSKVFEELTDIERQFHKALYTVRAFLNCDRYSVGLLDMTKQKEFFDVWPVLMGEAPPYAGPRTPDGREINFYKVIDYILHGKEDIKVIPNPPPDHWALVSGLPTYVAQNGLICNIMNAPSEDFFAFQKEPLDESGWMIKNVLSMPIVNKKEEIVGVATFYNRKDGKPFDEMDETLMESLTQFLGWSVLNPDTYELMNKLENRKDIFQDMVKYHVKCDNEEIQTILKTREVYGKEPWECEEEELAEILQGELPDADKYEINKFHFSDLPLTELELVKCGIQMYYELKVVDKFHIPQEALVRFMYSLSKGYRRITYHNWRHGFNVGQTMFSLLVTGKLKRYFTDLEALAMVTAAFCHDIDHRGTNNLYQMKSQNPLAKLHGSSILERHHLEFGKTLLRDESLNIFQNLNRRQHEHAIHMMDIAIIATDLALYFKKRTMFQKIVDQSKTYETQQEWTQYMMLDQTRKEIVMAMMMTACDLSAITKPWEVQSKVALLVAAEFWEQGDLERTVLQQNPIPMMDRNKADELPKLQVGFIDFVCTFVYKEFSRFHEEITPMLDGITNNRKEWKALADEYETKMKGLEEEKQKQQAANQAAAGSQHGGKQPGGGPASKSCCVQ


What was measured:
Assay in all cases: cross-linking
[1] = molecular target: PDE6 catalytic dimer (Pαβ) (bovine, UniProt P11541 1-859; P23439 1-853)
[2] = molecular target: T1, PDE6 β-subunit (Pβ), catalytic subunit …
[3] = molecular target: T2, PDE6 α-subunit (Pα), catalytic subunit …

Row | Binder | binding result [1] | binding result [2] | binding result [3]
1 | PDE6 inhibitory γ-subunit (Pγ), endogenous, in the purified PDE6 holoenzyme (natural protein, bovine, UniProt P04972 1-87, looked up) MNLEPPKAEIRSATRVMGGPVTPRKGPPKFKQRQTRQFKSKPPKKGVQGFGDDIPGMEGLGTDITVICPWEAFNHLELHELAQYGII | binds | – | –
2 | wild-type Pγ, recombinant (Pγ 1–87) (natural protein, bovine, UniProt P04972 1-87, looked up) MNLEPPKAEIRSATRVMGGPVTPRKGPPKFKQRQTRQFKSKPPKKGVQGFGDDIPGMEGLGTDITVICPWEAFNHLELHELAQYGII | binds | – | –
3 | Pγ 73C-MBP (natural protein, bovine, UniProt P04972 1-87, looked up, 4-(N-maleimido)benzophenone (MBP) on Cys73) MNLEPPKAEIRSATRVMGGPVTPRKGPPKFKQRQTRQFKSKPPKKGVQGFGDDIPGMEGLGTDITVISPWEACNHLELHELAQYGII | – | binds | binds
4 | Pγ 30C-MBP (natural protein, bovine, UniProt P04972 1-87, looked up, 4-(N-maleimido)benzophenone (MBP) on Cys30) MNLEPPKAEIRSATRVMGGPVTPRKGPPKCKQRQTRQFKSKPPKKGVQGFGDDIPGMEGLGTDITVISPWEAFNHLELHELAQYGII | – | binds | –
